Assay results reported in patent US20150203577A1 (Chugai, published 2015).

T1: mouse FcγRII (mouse, UniProt P08101 30-210)
T1 construct: also called mFcγRII; mFcgRII
T1 sequence: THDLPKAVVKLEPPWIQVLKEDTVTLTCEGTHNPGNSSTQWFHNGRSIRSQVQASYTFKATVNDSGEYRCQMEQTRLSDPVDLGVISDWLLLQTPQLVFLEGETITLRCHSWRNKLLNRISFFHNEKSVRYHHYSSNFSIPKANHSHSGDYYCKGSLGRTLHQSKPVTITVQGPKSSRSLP

T2: mouse FcγRIII (mouse, UniProt P08508 31-215)
T2 construct: also called mFcγRIII; mFcgRIII
T2 chain: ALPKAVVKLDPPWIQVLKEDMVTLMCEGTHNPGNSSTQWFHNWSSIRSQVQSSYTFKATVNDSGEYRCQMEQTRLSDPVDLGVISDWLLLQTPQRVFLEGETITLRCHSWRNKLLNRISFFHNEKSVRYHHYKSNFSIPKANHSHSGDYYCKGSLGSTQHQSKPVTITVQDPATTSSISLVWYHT


Tests used:
mouse FcγRII = biological target: T1, mouse FcγRII; assay: SPR Biacore 4000, KD ratio
Protocol: (§1) Each altered antibody was analyzed for its interaction with each Fcγ receptor prepared above using Biacore T100 (GE Healthcare Japan Corp.), Biacore T200 (GE Healthcare Japan Corp.), Biacore A100, or Biacore 4000. The running buffer used was HBS-EP+ (GE Healthcare Japan Corp.). The assay temperature was set to 25° C. The sensor chips used were chips prepared by immobilizing Protein L (ACTIGEN or BioVision) onto Series S Sensor Chip CM5 (GE Healthcare Japan Corp.) or Series S Sensor Chip CM4 (GE Healthcare Japan Corp.) by the amine coupling method.
(§2) In order to calculate the KD value of each altered antibody for FcγR, kinetic analysis was conducted according to the following method: first, the antibody of interest was captured onto any of these chips and allowed to interact with mFcγR diluted with a running buffer. For the obtained sensorgram, the assay results were globally fit into the 1:1 Langmuir binding model using Biacore Evaluation Software to calculate an association rate constant ka (L/mol/s) and a dissociation rate constant kd (1/s). From these values, the dissociation constant KD (mol/L) was calculated.

mouse FcγRIII = biological target: T2, mouse FcγRIII; assay: SPR Biacore 4000, KD ratio
Protocol: as §1, §2

| Binder | relative mFcγRII-binding activity (mIgG1 = 1) (mouse FcγRII) | relative mFcγRIII-binding activity (mIgG1 = 1) (mouse FcγRIII) |
| --- | --- | --- |
| MB034 (antibody, mouse IgG1, kappa, copies: 2 + 2) heavy: QVQLQESGPGLVKPSETLSLTCAVSGHSISHDHAWSWVRQPPGEGLEWIGFISYSGITNYNPSLQGRVTISRDNSKNTLYLQMNSLRAEDTAVYYCARSLARTTAMDYWGEGTLVTVSSAKTTPPSVYPLAPGSAAQTNSMVTLGCLVKGYFPEPVTVTWNSGSLSSGVHTFPAVLQSDLYTLSSSVTVPSSTWPSETVTCNVAHPASSTKVDKKIVPRDCGCKPCICTTPEVSSVFIFPPKPKDVLTITLTPKVTCVVVDISKDDPEVQFSWFVDDVEVHTAQTQPREEQFNSTFRSVSELPIMHQDWLNGKEFKCRVNSAAFPAPIEKTISKTKGRPKAPQVYTIPPPKEQMAKDKVSLTCMITDFFPEDITVEWQWNGQPAENYKNTQPIMDTDGSYFVYSKLNVQKSNWEAGNTFTCSVLHEGLHNHHTEKSLSHSPGK light: not shown | 1.25 fold | 1.12 fold |
| MB053 (antibody, mouse IgG1, kappa, copies: 2 + 2) heavy: QVQLQESGPGLVKPSETLSLTCAVSGHSISHDHAWSWVRQPPGEGLEWIGFISYSGITNYNPSLQGRVTISRDNSKNTLYLQMNSLRAEDTAVYYCARSLARTTAMDYWGEGTLVTVSSAKTTPPSVYPLAPGSAAQTNSMVTLGCLVKGYFPEPVTVTWNSGSLSSGVHTFPAVLQSDLYTLSSSVTVPSSTWPSETVTCNVAHPASSTKVDKKIVPRDCGCKPCICTVWEVSSVFIFPPKPKDVLTITLTPKVTCVVVDISKDDPEVQFSWFVDDVEVHTAQTQPREEQFNSTFRSVSELPIMHQDWLNGKEFKCRVNSAAFPAPIEKTISKTKGRPKAPQVYTIPPPKEQMAKDKVSLTCMITDFFPEDITVEWQWNGQPAENYKNTQPIMDTDGSYFVYSKLNVQKSNWEAGNTFTCSVLHEGLHNHHTEKSLSHSPGK light: not shown | 1.36 fold | 1.02 fold |
| MB052 (antibody, mouse IgG1, kappa, copies: 2 + 2) heavy: QVQLQESGPGLVKPSETLSLTCAVSGHSISHDHAWSWVRQPPGEGLEWIGFISYSGITNYNPSLQGRVTISRDNSKNTLYLQMNSLRAEDTAVYYCARSLARTTAMDYWGEGTLVTVSSAKTTPPSVYPLAPGSAAQTNSMVTLGCLVKGYFPEPVTVTWNSGSLSSGVHTFPAVLQSDLYTLSSSVTVPSSTWPSETVTCNVAHPASSTKVDKKIVPRDCGCKPCICTVVEVSSVFIFPPKPKDVLTITLTPKVTCVVVDISKDDPEVQFSWFVDDVEVHTAQTQPREEQFNSTFRSVSELPIMHQDWLNGKEFKCRVNSAAFPAPIEKTISKTKGRPKAPQVYTIPPPKEQMAKDKVSLTCMITDFFPEDITVEWQWNGQPAENYKNTQPIMDTDGSYFVYSKLNVQKSNWEAGNTFTCSVLHEGLHNHHTEKSLSHSPGK light: not shown | 1.36 fold | 1.2 fold |
| MB039 (antibody, mouse IgG1, kappa, copies: 2 + 2) heavy: QVQLQESGPGLVKPSETLSLTCAVSGHSISHDHAWSWVRQPPGEGLEWIGFISYSGITNYNPSLQGRVTISRDNSKNTLYLQMNSLRAEDTAVYYCARSLARTTAMDYWGEGTLVTVSSAKTTPPSVYPLAPGSAAQTNSMVTLGCLVKGYFPEPVTVTWNSGSLSSGVHTFPAVLQSDLYTLSSSVTVPSSTWPSETVTCNVAHPASSTKVDKKIVPRDCGCKPCICTVEEVSSVFIFPPKPKDVLTITLTPKVTCVVVDISKDDPEVQFSWFVDDVEVHTAQTQPREEQFNSTFRSVSELPIMHQDWLNGKEFKCRVNSAAFPAPIEKTISKTKGRPKAPQVYTIPPPKEQMAKDKVSLTCMITDFFPEDITVEWQWNGQPAENYKNTQPIMDTDGSYFVYSKLNVQKSNWEAGNTFTCSVLHEGLHNHHTEKSLSHSPGK light: not shown | 3.27 fold | 1.29 fold |
| MB037 (antibody, mouse IgG1, kappa, copies: 2 + 2) heavy: QVQLQESGPGLVKPSETLSLTCAVSGHSISHDHAWSWVRQPPGEGLEWIGFISYSGITNYNPSLQGRVTISRDNSKNTLYLQMNSLRAEDTAVYYCARSLARTTAMDYWGEGTLVTVSSAKTTPPSVYPLAPGSAAQTNSMVTLGCLVKGYFPEPVTVTWNSGSLSSGVHTFPAVLQSDLYTLSSSVTVPSSTWPSETVTCNVAHPASSTKVDKKIVPRDCGCKPCICTVAEVSSVFIFPPKPKDVLTITLTPKVTCVVVDISKDDPEVQFSWFVDDVEVHTAQTQPREEQFNSTFRSVSELPIMHQDWLNGKEFKCRVNSAAFPAPIEKTISKTKGRPKAPQVYTIPPPKEQMAKDKVSLTCMITDFFPEDITVEWQWNGQPAENYKNTQPIMDTDGSYFVYSKLNVQKSNWEAGNTFTCSVLHEGLHNHHTEKSLSHSPGK light: not shown | 1.54 fold | 1.22 fold |
| MB040 (antibody, mouse IgG1, kappa, copies: 2 + 2) heavy: QVQLQESGPGLVKPSETLSLTCAVSGHSISHDHAWSWVRQPPGEGLEWIGFISYSGITNYNPSLQGRVTISRDNSKNTLYLQMNSLRAEDTAVYYCARSLARTTAMDYWGEGTLVTVSSAKTTPPSVYPLAPGSAAQTNSMVTLGCLVKGYFPEPVTVTWNSGSLSSGVHTFPAVLQSDLYTLSSSVTVPSSTWPSETVTCNVAHPASSTKVDKKIVPRDCGCKPCICTVFEVSSVFIFPPKPKDVLTITLTPKVTCVVVDISKDDPEVQFSWFVDDVEVHTAQTQPREEQFNSTFRSVSELPIMHQDWLNGKEFKCRVNSAAFPAPIEKTISKTKGRPKAPQVYTIPPPKEQMAKDKVSLTCMITDFFPEDITVEWQWNGQPAENYKNTQPIMDTDGSYFVYSKLNVQKSNWEAGNTFTCSVLHEGLHNHHTEKSLSHSPGK light: not shown | 1.47 fold | 1.17 fold |
| MB045 (antibody, mouse IgG1, kappa, copies: 2 + 2) heavy: QVQLQESGPGLVKPSETLSLTCAVSGHSISHDHAWSWVRQPPGEGLEWIGFISYSGITNYNPSLQGRVTISRDNSKNTLYLQMNSLRAEDTAVYYCARSLARTTAMDYWGEGTLVTVSSAKTTPPSVYPLAPGSAAQTNSMVTLGCLVKGYFPEPVTVTWNSGSLSSGVHTFPAVLQSDLYTLSSSVTVPSSTWPSETVTCNVAHPASSTKVDKKIVPRDCGCKPCICTVLEVSSVFIFPPKPKDVLTITLTPKVTCVVVDISKDDPEVQFSWFVDDVEVHTAQTQPREEQFNSTFRSVSELPIMHQDWLNGKEFKCRVNSAAFPAPIEKTISKTKGRPKAPQVYTIPPPKEQMAKDKVSLTCMITDFFPEDITVEWQWNGQPAENYKNTQPIMDTDGSYFVYSKLNVQKSNWEAGNTFTCSVLHEGLHNHHTEKSLSHSPGK light: not shown | 1.2 fold | 0.9 fold |
| MB038 (antibody, mouse IgG1, kappa, copies: 2 + 2) heavy: QVQLQESGPGLVKPSETLSLTCAVSGHSISHDHAWSWVRQPPGEGLEWIGFISYSGITNYNPSLQGRVTISRDNSKNTLYLQMNSLRAEDTAVYYCARSLARTTAMDYWGEGTLVTVSSAKTTPPSVYPLAPGSAAQTNSMVTLGCLVKGYFPEPVTVTWNSGSLSSGVHTFPAVLQSDLYTLSSSVTVPSSTWPSETVTCNVAHPASSTKVDKKIVPRDCGCKPCICTVDEVSSVFIFPPKPKDVLTITLTPKVTCVVVDISKDDPEVQFSWFVDDVEVHTAQTQPREEQFNSTFRSVSELPIMHQDWLNGKEFKCRVNSAAFPAPIEKTISKTKGRPKAPQVYTIPPPKEQMAKDKVSLTCMITDFFPEDITVEWQWNGQPAENYKNTQPIMDTDGSYFVYSKLNVQKSNWEAGNTFTCSVLHEGLHNHHTEKSLSHSPGK light: not shown | 3.15 fold | 1.37 fold |
